Assays:
Test in all cases: co-IP
[1] = biological target: Vps13^N2,3,4S (Vps13^GFP, conserved asparagines of VAB repeats 2, 3 and 4 to serine) (S. cerevisiae) (UniProt Q07878)
[2] = biological target: Vps13^N1 (Vps13^GFP, conserved asparagine of VAB repeat 1 to alanine) (S. cerevisiae) (UniProt Q07878)
[3] = biological target: Vps13^N3 (Vps13^GFP, conserved asparagine of VAB repeat 3 to alanine) (S. cerevisiae) (UniProt Q07878)
[4] = biological target: Vps13^N4 (Vps13^GFP, conserved asparagine of VAB repeat 4 to alanine) (S. cerevisiae, UniProt Q07878 1-3144, Vps13^N4A (N2216))
[5] = biological target: Vps13^N4S (Vps13^GFP N2216S, models VPS13B N2993S) (S. cerevisiae, UniProt Q07878 1-3144, Vps13^N4S (N2216))

B1: Spo71-3HA (natural protein)
chain: MDSIVNVVEDDVKYAQRVTSFSSPQNANVKVFTIPRHSFTAFRLSYVSPTELSACSQVTLLGGIPKQWYADQNNQVWKLLTKISLRKVRKQSDMLRRYGYGTIYKKRVGKIPTALYLRKHFTWSYEDNTSIHNGHRLKEAEMEMKRTRSSPVQKSEYKLSLPRRCRSSSDQNFMRQELLKEKKSELSRNNSLPLIDTAQAVDIHPVLHEEDQENTNKRNKSLLSNLKRKDLGESKSISRKDYSHFDRIPSPSSARSVGETDFNYNREPSEDTLRYPDSIIEVTNRTSPAPNSILSRSGQFVNSNDLSDGFSTSNTINNVGLNANEKIFFNALQSMEKENLMLWKTSQKYGTYLDERRKSADAFQKRERGSCVDIGKLHSSHLPFINILPPWPTELTEEERIIHDRLASKHSHHIRKHVHNARNKTSCKIKDSVGTFLGMTNSLTNKATVKKRTGQILKKEKMLVMVKEAIQNKVPLPNFSENECFDTRVSERWKEYIVIARSTGRFDPPILLQFYRHRHIPEIEDISSIATKYHRNPLDFFLSRNCIVKFYSSLDKTISIQKPDKRLGGFIDESIEKKDELKHYSPIKIFILRCSSIRSSGRWYKFLLESLDRQLFTPAINLKIPLTEISIKINLNEIIFQKLIDLGKQEKDRLKICFLQRGYKIFQHPILRYFTVAILEKLKLAHYDYLIRKWDTENPVLGCALKRYDRLEWIPCDEDSLVTGIFAFCQSHLIQYRPIANRLRETKSLEGKCLKEPTPIEGFLIRLTDKYGSARTNFGKYSISTAYFFTCENLLFSMKAYRANPPLPIDSMIDDTSTEIEKEEIWKQWKKIPEVYEQQPYPLDTNDHIEWMNCQTTQSEYDSRDFYAFHCFHRRIDQILKTDNVIDLTEVKDIYQGTRTDYEADKIKYGVYKEASEIFWHRNYEIDDVSRSVINIETSNGLLLKLLATSATVAEEWVIKLKQMISYWKNKQREDTERLLKIRRSNAGLLMLNGEEETKIGENTLRWIVEHGRADEQTFNANGISLSRPLIQKGPLYQKPHKHSVFSKYYVVLISGFIVLFHCFHRSTTGFAKEVLEYAHYVTIPIDDCYLYSGTTTELDLLQRDRTFDEINYGSHALPRVYGDGWRSVEDESSRCFTLWFGTRRALSSNRLQKKGNEKQYTQDYGRQDNNIDPPSAPEADLNNSNVPSNTDKIHFTKKLGVSGKSMVFMARSRQERDLWVMSIYYELERLRRTASTSNSRNQTM
- recovery relative to WT [1]: 42%
- pull-down relative to WT [2]: 41%

B2: Ypt35-3HA (natural protein)
chain: MSDKISFLPPEPIQLLDEDSTEPELDIDSQQENEGPISASNSNDSTSHSNDCGATITRTRPRRSSSINANFSFQKAHVSDCTIVNGDHGTKFAVWRITVFLEPNLKAFAAKRESYKIQTYKRYSDFVRLRENLLTRIKTAKPEKLNCLQIPHLPPSVQWYSSWKYQEVNLNKDWLAKRQRGLEYFLNHIILNSSLVEMTKDILIQFLEPSKRVA
- recovery relative to WT [2]: 24%

B3: Mcp1-3HA (natural protein, S. cerevisiae, UniProt Q12106 1-302, looked up)
chain: MIKLHEVPPEPVDPASLPHDVNAHSPEGDGNPDKRKKIFGIPYPFSRSSCRRFLWNCQKISVLPMALYFPLHAANTLITPAVSPDSAPDDVLMMVREILPSITTKLLVAGITLHVSAGVLLRIVNNWNKPRRNRHRHLKISAEQDLSQDSIGLTGGISGYLFGLYKTFRIPPQVISGYILVPVLIYHLLIMKWVPNSISTEVDFASIKQLLSSKNRWWKWLGGLVPLAILLESGVYHIGSGLCRYFGVRKMTSRKKWSTAINLLTLVGFVSLIRLMKEDSTKLGPNQFESIFKKIRLLLHVN
- recovery relative to WT [3]: 67%
- recovery relative to WT [2]: 24%
- recovery relative to WT [4]: 42%
- pull-down relative to WT [5]: 77%
